Laboratory results from article PMC9168836, “Clamping of DNA shuts the condensin neck gate” (Proceedings of the National Academy of Sciences of the …, 2021).

What was measured:
Ycg1 = molecular target: T1, Ycg1 (budding yeast (S. cerevisiae), UniProt Q06680 1-1035); assay: cryo-EM structure; condensin pentamer (Smc2, Smc4, Brn1, Ycs4, Ycg1) with 80-bp dsDNA, 5 mM ADP, 1 mM BeSO4, 10 mM NaF in TNT buffer pH 7.5; separate maps of the clamped head module and of Ycg1-DNA; details: both partners purified
T1 construct: Ycg1, HAWK (HEAT repeat) subunit of budding yeast (S. cerevisiae) condensin
T1 sequence: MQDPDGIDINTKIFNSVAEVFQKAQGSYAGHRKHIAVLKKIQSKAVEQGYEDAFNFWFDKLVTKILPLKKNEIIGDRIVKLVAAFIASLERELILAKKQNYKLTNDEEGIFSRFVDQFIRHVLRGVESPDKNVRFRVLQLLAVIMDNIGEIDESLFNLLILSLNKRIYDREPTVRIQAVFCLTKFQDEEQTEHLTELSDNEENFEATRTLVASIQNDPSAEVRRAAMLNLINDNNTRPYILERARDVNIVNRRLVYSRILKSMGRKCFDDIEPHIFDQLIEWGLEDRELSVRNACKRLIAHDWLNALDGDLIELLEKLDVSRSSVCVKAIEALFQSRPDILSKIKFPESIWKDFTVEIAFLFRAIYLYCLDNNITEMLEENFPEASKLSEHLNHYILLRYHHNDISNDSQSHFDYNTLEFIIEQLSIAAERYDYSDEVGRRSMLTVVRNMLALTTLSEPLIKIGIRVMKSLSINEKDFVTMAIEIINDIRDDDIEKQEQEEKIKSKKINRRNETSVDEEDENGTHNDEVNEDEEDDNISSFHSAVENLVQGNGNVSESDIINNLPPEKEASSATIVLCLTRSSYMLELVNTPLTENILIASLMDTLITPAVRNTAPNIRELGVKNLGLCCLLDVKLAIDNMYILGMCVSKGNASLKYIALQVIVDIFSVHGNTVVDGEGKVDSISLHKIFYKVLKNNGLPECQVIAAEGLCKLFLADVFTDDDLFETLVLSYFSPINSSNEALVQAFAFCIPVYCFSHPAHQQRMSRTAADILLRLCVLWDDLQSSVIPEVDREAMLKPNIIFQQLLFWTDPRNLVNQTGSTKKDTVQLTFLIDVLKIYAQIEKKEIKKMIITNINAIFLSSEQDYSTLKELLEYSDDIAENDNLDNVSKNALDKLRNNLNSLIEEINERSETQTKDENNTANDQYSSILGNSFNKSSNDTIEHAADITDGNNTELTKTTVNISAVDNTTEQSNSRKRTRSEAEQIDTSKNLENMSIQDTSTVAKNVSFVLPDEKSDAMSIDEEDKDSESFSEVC

Smc4-3xStrepII = molecular target: T2, Smc4-3xStrepII (budding yeast (S. cerevisiae), UniProt Q12267 1-1418); assay: as above; details: both partners purified
T2 construct: Smc4, SMC subunit of budding yeast (S. cerevisiae) condensin; only the head domain, proximal coiled coil and residues 126-144 are resolved in the maps; The tag's end is read from the plasmid's name SMC4-3xStrepII; also called Scm4
T2 sequence: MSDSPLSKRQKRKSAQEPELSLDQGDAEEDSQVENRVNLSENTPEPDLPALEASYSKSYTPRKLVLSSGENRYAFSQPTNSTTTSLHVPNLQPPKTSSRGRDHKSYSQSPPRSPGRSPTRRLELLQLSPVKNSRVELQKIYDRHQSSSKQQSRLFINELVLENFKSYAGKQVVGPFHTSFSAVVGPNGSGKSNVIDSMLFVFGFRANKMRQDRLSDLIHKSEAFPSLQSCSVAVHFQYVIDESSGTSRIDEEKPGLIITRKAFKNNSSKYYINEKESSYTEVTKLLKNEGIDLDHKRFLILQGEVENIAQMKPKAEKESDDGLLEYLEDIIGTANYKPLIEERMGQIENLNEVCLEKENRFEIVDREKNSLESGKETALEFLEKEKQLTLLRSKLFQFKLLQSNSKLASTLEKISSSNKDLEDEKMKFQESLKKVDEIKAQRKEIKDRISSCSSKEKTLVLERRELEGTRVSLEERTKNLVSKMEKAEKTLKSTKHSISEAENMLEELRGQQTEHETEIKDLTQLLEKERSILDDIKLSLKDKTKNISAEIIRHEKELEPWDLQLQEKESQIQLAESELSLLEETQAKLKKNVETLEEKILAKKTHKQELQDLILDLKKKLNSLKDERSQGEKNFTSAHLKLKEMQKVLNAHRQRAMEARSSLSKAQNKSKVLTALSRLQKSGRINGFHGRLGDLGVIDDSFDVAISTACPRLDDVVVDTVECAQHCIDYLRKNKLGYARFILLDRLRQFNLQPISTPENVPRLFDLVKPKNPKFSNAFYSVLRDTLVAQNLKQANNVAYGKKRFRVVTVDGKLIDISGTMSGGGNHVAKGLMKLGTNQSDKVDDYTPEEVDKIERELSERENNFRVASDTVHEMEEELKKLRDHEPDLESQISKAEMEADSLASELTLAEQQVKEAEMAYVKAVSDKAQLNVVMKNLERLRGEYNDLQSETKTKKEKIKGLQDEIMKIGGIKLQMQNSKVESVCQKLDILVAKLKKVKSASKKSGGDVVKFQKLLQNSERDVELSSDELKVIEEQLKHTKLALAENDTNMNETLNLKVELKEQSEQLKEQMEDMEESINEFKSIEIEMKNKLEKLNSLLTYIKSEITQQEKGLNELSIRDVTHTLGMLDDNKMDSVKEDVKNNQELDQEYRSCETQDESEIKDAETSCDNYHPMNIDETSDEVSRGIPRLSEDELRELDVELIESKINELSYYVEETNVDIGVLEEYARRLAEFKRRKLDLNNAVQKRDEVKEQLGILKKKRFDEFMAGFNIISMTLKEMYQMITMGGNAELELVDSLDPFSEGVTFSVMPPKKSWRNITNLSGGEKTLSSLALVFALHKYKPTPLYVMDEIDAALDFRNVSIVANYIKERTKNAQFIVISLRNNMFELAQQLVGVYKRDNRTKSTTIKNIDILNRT

binding result (Ycg1): binds | binding result (Smc4-3xStrepII): binds
B1: Brn1-HA3-His12 (natural protein, budding yeast (S. cerevisiae), UniProt P38170 1-754, looked up)
chain: MTTQLRYENNDDDERVEYNLFTNRSTMMANFEEWIKMATDNKINSRNSWNFALIDYFYDLDVLKDGENNINFQKASATLDGCIKIYSSRVDSVTTETGKLLSGLAQRKTNGASNGDDSNGGNGEGLGGDSDEANIEIDPLTGMPISNDPDVNNTRRRVYNRVLETTLVEFETIKMKELDQELIIDPLFKKALVDFDEGGAKSLLLNTLNIDNTARVIFDASIKDTQNVGQGKLQRKEEELIERDSLVDDENEPSQSLISTRNDSTVNDSVISAPSMEDEILSLGMDFIKFDQIAVCEISGSIEQLRNVVEDINQAKDFIENVNNRFDNFLTEEELQAAVPDNAEDDSDGFDMGMQQELCYPDENHDNTSHDEQDDDNVNSTTGSIFEKDLMAYFDENLNRNWRGREHWKVRNFKKANLVNKESDLLEETRTTIGDTTDKNTTDDKSMDTKKKHKQKKVLEIDFFKTDDSFEDKVFASKGRTKIDMPIKNRKNDTHYLLPDDFHFSTDRITRLFIKPGQKMSLFSHRKHTRGDVSSGLFEKSTVSANHSNNDIPTIADEHFWADNYERKEQEEKEKEQSKEVGDVVGGALDNPFEDDMDGVDFNQAFEGTDDNEEASVKLDLQDDEDHKFPIRENKVTYSRVSKKVDVRRLKKNVWRSINNLIQEHDSRKNREQSSNDSETHTEDESTKELKFSDIIQGISKMYSDDTLKDISTSFCFICLLHLANEHGLQITHTENYNDLIVNYEDLATTQAAS
notes: Brn1, kleisin subunit of budding yeast (S. cerevisiae) condensin; 754 residues as printed (279/754 traced in the head module map); The tags' end is read from the plasmid's name BRN1-HA3-His12; also called kleisin Brn1
